Data published in patent US6693076.
Each block holds one substance with its values, some of them ahead of it.

Key:
[1] = target: IGF-I receptor in homogenized adult rat brain tissue (cerebral cortex and cerebellum) (rat) (UniProt P24062); assay: displacement of 20 pM 125I-[Thr59]IGF-I from homogenised rat brain tissue; competitor at 100 µM; SD 1.4
[2] = target: IGF-I receptor in homogenized adult rat brain tissue (cerebral cortex and cerebellum) (rat) (UniProt P24062); assay: displacement of 20 pM 125I-[Thr59]IGF-I from homogenised rat brain tissue; competitor at 100 µM; SD 20
[3] = target: 125I-[Threonine59]IGF-I binding sites in adult rat brain sections (level of the cerebellum and brain stem) (rat); assay: displacement of 0.01 nM 125I-[Thr59]IGF-I from rat brain sections; competitor at 4 pM
[4] = target: 125I-[Threonine59]IGF-I binding sites in adult rat brain sections (level of the cerebellum and brain stem) (rat); assay: displacement of 0.01 nM 125I-[Thr59]IGF-I from rat brain sections; competitor at 400 pM
[5] = target: IGF-I receptor in homogenized adult rat brain tissue (cerebral cortex and cerebellum) (rat) (UniProt P24062); assay: displacement of 20 pM 125I-[Thr59]IGF-I from homogenised rat brain tissue; competitor at 1 mM; SD 1.8
[6] = target: IGF-I receptor in homogenized adult rat brain tissue (cerebral cortex and cerebellum) (rat) (UniProt P24062); assay: displacement of 20 pM 125I-[Thr59]IGF-I from homogenised rat brain tissue; competitor at 100 µM; SD 6
[7] = target: IGF-I receptor in homogenized adult rat brain tissue (cerebral cortex and cerebellum) (rat) (UniProt P24062); assay: displacement of 20 pM 125I-[Thr59]IGF-I from homogenised rat brain tissue; competitor at 40 nM; SD 0.7
[8] = target: 125I-[Threonine59]IGF-I binding sites in adult rat brain sections (level of the cerebellum and brain stem) (rat); assay: displacement of 0.01 nM 125I-[Thr59]IGF-I from rat brain sections; competitor at 200 nM
[9] = target: 125I-[Threonine59]IGF-I binding sites in adult rat brain sections (level of the cerebellum and brain stem) (rat); assay: displacement of 0.01 nM 125I-[Thr59]IGF-I from rat brain sections; competitor at 400 nM
[10] = target: IGF-I receptor in homogenized adult rat brain tissue (cerebral cortex and cerebellum) (rat) (UniProt P24062); assay: displacement of 20 pM 125I-[Thr59]IGF-I from homogenised rat brain tissue; competitor at 100 µM; SD 21

Chain of IGF-I receptor in homogenized adult rat brain tissue (cerebral cortex and cerebellum) (rat) (P24062 31-1370): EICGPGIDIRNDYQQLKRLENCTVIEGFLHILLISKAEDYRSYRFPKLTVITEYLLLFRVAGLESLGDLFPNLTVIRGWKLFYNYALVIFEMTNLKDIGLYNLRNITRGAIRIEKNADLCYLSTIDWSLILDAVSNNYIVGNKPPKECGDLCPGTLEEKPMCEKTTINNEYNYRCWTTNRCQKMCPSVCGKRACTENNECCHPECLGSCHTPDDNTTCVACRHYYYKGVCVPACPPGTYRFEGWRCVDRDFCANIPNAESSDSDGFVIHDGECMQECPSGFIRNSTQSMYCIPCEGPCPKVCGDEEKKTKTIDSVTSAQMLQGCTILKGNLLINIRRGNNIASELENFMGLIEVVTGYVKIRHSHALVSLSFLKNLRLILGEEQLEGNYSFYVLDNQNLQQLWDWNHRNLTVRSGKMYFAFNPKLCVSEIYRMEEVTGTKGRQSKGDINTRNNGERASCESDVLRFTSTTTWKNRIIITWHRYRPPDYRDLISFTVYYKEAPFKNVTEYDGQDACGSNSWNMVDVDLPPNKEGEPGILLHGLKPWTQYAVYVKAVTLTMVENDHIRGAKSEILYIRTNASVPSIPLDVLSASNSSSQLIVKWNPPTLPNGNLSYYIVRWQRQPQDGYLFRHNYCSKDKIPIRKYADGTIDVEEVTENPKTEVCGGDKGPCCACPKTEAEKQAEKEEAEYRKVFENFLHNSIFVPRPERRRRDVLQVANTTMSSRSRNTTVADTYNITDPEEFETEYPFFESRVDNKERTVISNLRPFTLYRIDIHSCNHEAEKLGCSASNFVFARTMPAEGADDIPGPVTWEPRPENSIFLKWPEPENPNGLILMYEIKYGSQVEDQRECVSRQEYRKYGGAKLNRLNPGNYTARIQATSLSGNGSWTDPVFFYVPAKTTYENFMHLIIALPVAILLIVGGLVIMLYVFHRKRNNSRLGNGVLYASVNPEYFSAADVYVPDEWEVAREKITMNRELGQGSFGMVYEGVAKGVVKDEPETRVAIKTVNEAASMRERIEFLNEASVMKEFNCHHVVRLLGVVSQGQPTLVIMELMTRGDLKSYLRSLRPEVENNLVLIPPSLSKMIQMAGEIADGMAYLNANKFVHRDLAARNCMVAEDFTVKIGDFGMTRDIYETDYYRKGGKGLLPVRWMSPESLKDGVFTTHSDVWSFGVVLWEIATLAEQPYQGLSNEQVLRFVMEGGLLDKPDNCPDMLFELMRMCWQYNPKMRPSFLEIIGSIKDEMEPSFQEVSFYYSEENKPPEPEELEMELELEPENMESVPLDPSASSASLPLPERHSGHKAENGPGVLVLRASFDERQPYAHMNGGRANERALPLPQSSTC
Chain of IGF-II (Somatomedin-A) (P01344 25-91): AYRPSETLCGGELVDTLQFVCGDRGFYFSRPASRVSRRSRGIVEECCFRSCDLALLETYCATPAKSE

Substance: IGF-I(30-41) (peptide)
percent max. bound [1]: 94%

Substance: IGF-II(33-40) (peptide)
percent max. bound [5]: 92%

Substance: IGF-II(54-67) (peptide)
percent max. bound [6]: 94%

Next, values leading:

percent max. bound [2]: 83%
Substance: IGF-I(62-70) (peptide)

percent max. bound [3]: 91% | percent max. bound [4]: 30%
Substance: Human IGF-I (Somatomedin-C) (from UniProt P05019 49-118) (ligand)

percent max. bound [7]: 92.1% | percent max. bound [8]: 50% | percent max. bound [9]: 23%
Substance: IGF-II (Somatomedin-A) (from UniProt P01344 25-91) (ligand)

percent max. bound [10]: 83%
Substance: IGF-II(62-67) (peptide)
